Source: publication PMC2852523 (The Journal of Membrane Biology, 2010)

Assays:
[1] = biological target: T1, Potassium channel KcsA, wild-type (Streptomyces lividans), P0A334; experiment: SDS-PAGE; details: remark: other sources report otherwise
T1 chain: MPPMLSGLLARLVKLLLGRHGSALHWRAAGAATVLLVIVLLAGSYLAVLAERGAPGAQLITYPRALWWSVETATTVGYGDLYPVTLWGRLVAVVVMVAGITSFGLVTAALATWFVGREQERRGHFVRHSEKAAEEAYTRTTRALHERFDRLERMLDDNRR

SDS-PAGE = biological target: the molecule itself; experiment: SDS-PAGE

B1: Potassium channel KcsA, wild-type, P0A334 1-160 (natural protein)
chain: MPPMLSGLLARLVKLLLGRHGSALHWRAAGAATVLLVIVLLAGSYLAVLAERGAPGAQLITYPRALWWSVETATTVGYGDLYPVTLWGRLVAVVVMVAGITSFGLVTAALATWFVGREQERRGHFVRHSEKAAEEAYTRTTRALHERFDRLERMLDDNRR
[1]
  stoichiometry N: 4

B2: ΔN-KcsA (KcsA lacking the first 18 amino acids, Δ1–18) (domain or fragment, Streptomyces lividans, UniProt P0A334 19-160, looked up)
chain: RHGSALHWRAAGAATVLLVIVLLAGSYLAVLAERGAPGAQLITYPRALWWSVETATTVGYGDLYPVTLWGRLVAVVVMVAGITSFGLVTAALATWFVGREQERRGHFVRHSEKAAEEAYTRTTRALHERFDRLERMLDDNRR
SDS-PAGE
  stoichiometry N: 4
